# B1: 2G12 soluble IgG mAb (antibody, V domains shown)
# VH: EVQLVESGGGLVKAGGSLILSCGVSNFRISAHTMNWVRRVPGGGLEWVASISTSSTYRDYADAVKGRFTVSRDDLEDFVYLQMHKMRVEDTAIYYCARKGSDRLSDNDPFDAWGPGTVVTVSP
# VL: DVVMTQSPSTLSASVGDTITITCRASQSIETWLAWYQQKPGKAPKLLIYKASTLKTGVPSRFSGSGSGTEFTLTISGLQFDDFATYHCQHYAGYSATFGQGTRVEIK
# Legend:
# Assay in all cases: SPR
# [1] = molecular target: 2G12 IgM BCR complex (membrane IgM with Igα/Igβ) (human | human (endogenous in Ramos)) (UniProt P11912)
# [2] = molecular target: 2G12 IgG BCR complex (membrane IgG with Igα/Igβ) (human | human (endogenous in Ramos)) (UniProt P11912)
# [3] = molecular target: HIV-1 Env gp140 trimer CH505TF v4.1 (non-biotinylated) (HIV-1 clade C, CH505 transmitted/founder, UniProt M4M3Q1, stabilised)
Molecule,kon [1] [M⁻¹ s⁻¹],kon [2] [M⁻¹ s⁻¹],binding result [3]
HIV-1 Env gp140 trimer CAP256 (non-biotinylated),> 100000,> 100000,
HIV-1 Env gp140 trimer CH505TF v4.1 (non-biotinylated),> 100000,> 100000,
HIV-1 Env gp140 trimer BG505 GT1.2 (non-biotinylated),> 100000,> 100000,
HIV-1 Env gp140 trimer JRFL (non-biotinylated),> 100000,> 100000,
HIV-1 Env gp140 trimer CH848 (non-biotinylated),> 100000,> 100000,
B1,,,binds
